This is an account of results in paper PMC11737846.

By stoichiometry N is commonly meant a count of units in the complex or per binding partner.

The target in this test is recombinant hemolysin co-regulated protein 1 variant B (rHcp1^(variant B)) of Burkholderia pseudomallei (Burkholderia pseudomallei (clinical isolate DR0089)). Nature of the test: […]) at 10 mg/ml in PBS pH 7.2; […].

Consider “recombinant hemolysin co-regulated protein 1 variant B (rHcp1^(variant B)) of Burkholderia pseudomallei (natural protein)”, for which the stoichiometry N was 6.
